Patent US20260248947A1, “Methods of Treating Cancer Using Anti-HER2 Antibody-Drug Conjugates and HER2 Kinase Inhibitors” (Seagen Inc., priority 2023, published 2026)
Each block holds one compound with its values, some of them ahead of it.

Tests used:
[1] = system: HER2 cell surface protein levels; test: qFACS analysis of cell-surface HER2 levels upon tucatinib treatment; type: cell-based, human; conditions: 100 nM tucatinib
Experimental: HER2 cell surface levels were determined by qFACS analysis. Briefly, cells were stained with an anti-HER2 antibody (R&D Systems, Inc.; #MAB1129) and Zombie Aqua (BioLegend, Inc.; #423101) for dead cell exclusion. Cells were fixed, and HER2 receptor copy number per cell was quantified using a QIFIKIT (Agilent Dako) per the manufacturer's protocol.
(§1) The internalization experiments were conducted by detecting an antibody-bound pH sensitive probe using automated time-lapse microscopy. Briefly, breast cancer cell lines SK-BR-3, BT-474, HCC-202, and EFM-192C and gastric cancer cell lines NCI-N87 and OE19 were seeded in 96-well flat clear-bottom black tissue culture-treated microplates (Coming, cat #3603). Cells were plated at 1.5×10^4-2.5×10^4 cells/200 μL/well in growth medium and allowed to adhere overnight at 37° C. Disitamab and isotype control antibody (human IgG) were labeled with IncuCyte Fabfluor-pH Red Antibody Labeling Reagent (Essen Bioscience, cat #4722) according to the manufacturer's protocol. Volumes of the test antibodies, Fabfluor reagent and medium required were calculated at 2× the final assay concentration, and the Fabfluor reagent was added at a molar ratio of 1:3 to the antibody. Antibody and Fabfluor were mixed gently and incubated at 37° C. for 15 minutes. Media containing Fabluor-labeled disitamab ([…] final concentration) with or without tucatinib (100 nM final concentration) was added to cells. The plates were arranged on microplate trays in the IncuCyte SX3 system (Essen Bioscience), and scans were acquired using the Standard protocol. Phase data and red channel data (acquisition time set to 400 ms) were collected, with 4 images per well every 30 minutes for the first 6 hours and every 2 hours after that for up to 72.5 hours with the objective set at 10×. Quantification of fluorescence signal intensity was performed using the IncuCyte software analysis tool. Cell surface HER2 density was quantified using qFACS analysis as described supra.

HER2 [2] = biological target: T1, HER2 (Homo sapiens, UniProt P04626); test: Internalization assay of Fabfluor-labeled disitamab compared to trastuzumab (IncuCyte); type: cell-based; set-up: endogenous in cells; host or cells: SK-BR-3, BT-474, HCC-202, EFM-192C, BT-483, CAMA-1, NCI-N87, OE19, RERF-GC-1B
Experimental: The internalization experiments were conducted by detecting an antibody-bound pH sensitive probe using automated time-lapse microscopy. Briefly, breast cancer cell lines SK-BR-3, BT-474, HCC-202, EFM-192C, BT-483, and CAMA-1 and gastric cancer cell lines NCI-N87, OE19, and RERF-GC-1B were seeded in 96-well flat clear-bottom black tissue culture-treated microplates (Corning, cat #3603). Cells were plated at 1.5×10^4-2.5×10^4 cells/200 μL/well in growth medium and allowed to adhere overnight at 37° C. Disitamab, trastuzumab, and isotype control antibody (human IgG) were labeled with IncuCyte Fabfluor-pH Red Antibody Labeling Reagent (Essen Bioscience, cat #4722) according to the manufacturer's protocol. Volumes of the test antibodies, Fabfluor reagent and medium required were calculated at 2× the final assay concentration, and the Fabfluor reagent was added at a molar ratio of 1:3 to the antibody. Fabfluor dye fluoresces only upon exposure to an acidified compartment, namely endocytic vesicles and lysosomes, signifying internalization and intracellular processing of the ADC. Antibody and Fabfluor were mixed gently and incubated at 37° C. for 15 minutes. Media containing Fabfluor-labeled disitamab or trastuzumab ([…] final concentration) was added to cells. The plates were arranged on microplate trays in the IncuCyte SX3 system (Essen Bioscience), and scans were acquired using the Standard protocol. Phase data and red channel data (acquisition time set to 400 ms) were collected, with 4 images per well every 30 minutes for the first 6 hours and every 2 hours after that for up to 40 hours with the objective set at 10×. Quantification of fluorescence signal intensity was performed using the IncuCyte software analysis tool.

HER2 [3] = biological target: T1, HER2; test: Internalization assay of Fabfluor-labeled disitamab with or without tucatinib (IncuCyte); type: cell-based; set-up: endogenous in cells; host or cells: SK-BR-3, BT-474, HCC-202, EFM-192C, NCI-N87, OE19; conditions: 100 nM tucatinib
Experimental: as §1
The analysis was refined and tuned per cell line utilizing phase area confluence and manual image selection for preview and training of the algorithm. Upon completion of the analysis, red object integrated intensity (RCU×μm^2/image) data were graphed using GraphPad Prism. The experiment was performed in duplicate (technical replicates) for two biological replicates.

[4] = system: HER2+ locally advanced or metastatic breast cancer (LA/mBC); conditions: subjects that progressed following taxane plus trastuzumab treatment; cited from earlier work

Compound: Cc1cc(Nc2ncnc3ccc(NC4=NC(C)(C)CO4)cc23)ccc1Oc1ccn2ncnc2c1 [tucatinib, Tucatinib]
- cell-surface HER2 levels over time compared with untreated cells ([1]; BT-474): increase
- cell-surface HER2 levels over time compared with untreated cells ([1]; BT-483): increase
- cell-surface HER2 levels over time compared with untreated cells ([1]; CAMA-1): increase
- cell-surface HER2 levels over time compared with untreated cells ([1]; EFM-192C): increase
- cell-surface HER2 levels over time compared with untreated cells ([1]; HCC-202): increase
- cell-surface HER2 levels over time compared with untreated cells ([1]; NCI-N87): increase
- cell-surface HER2 levels over time compared with untreated cells ([1]; OE19): increase
- cell-surface HER2 levels over time compared with untreated cells ([1]; RERF-GC-1B): increase
- cell-surface HER2 levels over time compared with untreated cells ([1]; SK-BR-3): increase

- disitamab internalization as compared to trastuzumab (HER2 [2]; BT-474): Increased
- disitamab internalization as compared to trastuzumab (HER2 [2]; BT-483): Increased
- disitamab internalization as compared to trastuzumab (HER2 [2]; CAMA-1): Increased
- disitamab internalization as compared to trastuzumab (HER2 [2]; EFM-192C): Increased
- disitamab internalization as compared to trastuzumab (HER2 [2]; HCC-202): Increased
- disitamab internalization as compared to trastuzumab (HER2 [2]; NCI-N87): Increased
- disitamab internalization as compared to trastuzumab (HER2 [2]; OE19): Increased
- disitamab internalization as compared to trastuzumab (HER2 [2]; RERF-GC-1B): Increased
- disitamab internalization as compared to trastuzumab (HER2 [2]; SK-BR-3): Increased
- disitamab internalization in the presence of tucatinib compared to disitamab alone (HER2 [3]; EFM-192C): increased
- disitamab internalization in the presence of tucatinib compared to disitamab alone (HER2 [3]; NCI-N87): increased
- disitamab internalization in the presence of tucatinib compared to disitamab alone (HER2 [3]; OE19): increased
- disitamab internalization in the presence of tucatinib compared to disitamab alone (HER2 [3]; SK-BR-3): increased
Compound: disitamab

Compound: trastuzumab emtansine [T-DM1]
- overall response (either complete or partial response) [4]: 34.2%
- subjects alive without disease progression at 12 months [4]: 34.1%
